Results published in patent US5891661A, “Low temperature assay for active HCMV protease in dimeric form” (Merck & Co., Inc., priority 1997, dated 1999).

Experiments:
HCMV protease [1] = assay: Analytical centrifugation, velocity sedimentation of HCMV protease; assay type: physicochemical, human cytomegalovirus; settings: 20 mM (monomer equivalents), 20° C.
Description: Analytical Centrifugation
The quaternary state of the HCMV protease was characterized by sedimentation velocity measurements. […] An approximate solution of the Lamm equation fits directly to the data to obtain the sedimentation coefficient, S20,w, the diffusion coefficient, D20,w, and by use of the Svedberg relation, the molecular weight. For both samples good fits are found for a single sedimenting species. In the absence of glycerol the molecular weight obtained is 29.7 kDa which is close to the molecular weight of a monomeric HCMV protease. […] The increase in S20,w and the decrease D20,w shown in Table 1 are both consistent with the existence of a stable dimeric protease in 20% glycerol.
^α Samples were loaded at 20 mM (monomer equivalents) and
sedimentation was conducted at 20° C. Data shown in brackets are
the 95% confidence limits.

HCMV protease [2] = assay: Dependence of protease specific activity on temperature, enzyme and glycerol concentrations (dilution); assay type: biochemical, human cytomegalovirus
Protocol: Dependence of Protease Specific Activity on Enzyme and Glycerol Concentrations
Dilution of a concentrated solution of HCMV protease produces a time-dependent change in activity to a new, lower level. The rate and extent of the change in protease activity is a function of temperature. […] At temperatures above 20° C., the change in activity (t1/2 ≤30 min) upon enzyme dilution is such that an accurate assessment of activity requires a rapid assay (ca. 1 min).
The specific activity of the HCMV protease increases at higher enzyme and glycerol concentrations. […] It can be shifted back to the higher activity seen for 20% glycerol by addition of an equal volume of buffer containing 30% glycerol to produce a solution containing 20% glycerol, followed by further incubation. Thus, the dependence of HCMV protease activity on enzyme and glycerol concentrations is reversible.
The dependence of HCMV protease activity on enzyme concentration can be interpreted in terms of a monomer-dimer equilibrium wherein only the dimeric form of the enzyme is active.

HCMV protease [3] = assay: Activity assay of eluted size exclusion peaks at 0° C.; assay type: biochemical, human cytomegalovirus
Protocol: Assignment of the early (55 kDa) and late (33 kDa) elution peaks in FIG. 1 as dimer and monomer, respectively, allows the estimation of a Kd for dimerization. […] The maximum fraction of dimeric protease extrapolated from FIG. 2 is 0.92. In separate experiments using protease at a loading concentration of 100 mM, the maximum fraction of dimeric protease is more than or equal to 0.95. […] The same analysis applied to enzyme pre-equilibrated in 10% glycerol produces a […]

HCMV protease [4] = assay: Kinetic assays of monomeric form; assay type: biochemical, human cytomegalovirus; settings: ambient or higher temperatures
Protocol: For this reason, the activity of this protease has been erroneously believed to be very low. […] This physiochemical phenomenon is governed by thermodynamic principles. Due to the high activation energy required for dissociation, the HCMV protease can be "frozen" in its active, dimeric form at about 0° C., thus enabling sensitive detection of inhibitors of this enzyme. […] The existence of the HCMV protease has been reported, e.g., see Pinko, et al., J. Biol. Chem. 270, 23634 (1995). Assays for the catalytic activity of this enzyme have been described, albeit the reported kinetic parameters were substantially lower than those measured by applicants. […] This approach affords an assay for the activity of the protease at low concentration (≤20 nM), thus permitting detection of weak inhibitors or strong inhibitors at low concentration.

wild-type HCMV protease = assay: Stability of purified wild-type enzyme at pH 5.5 and return of activity at pH 7.5; assay type: physicochemical, human cytomegalovirus
Protocol: The wild-type HCMV protease was purified similarly. To avoid self-proteolysis, the protein obtained from the first anion exchange step was folded and dialyzed as above, but in the absence of glycerol. The sample was then acidified to pH 5.5 with MES, applied to a cation exchange column in 50 mM MES, 1 mM EDTA, 1 mM DTT, pH 5.5, and eluted with a sodium chloride gradient. […] Enzyme preparations were greater than 95% pure by SDS PAGE and gave the expected amino acid analysis. The N-terminal 5 residues of both enzymes were MTMDE, showing retention but defonnylation of the initial N-formyl methionine. Electrospray mass spectrometry indicated a single species within 10 a.m.u. of the expected mass. The concentrations of stock enzyme solutions were determined by quantitative amino acid analysis.

HCMV protease: N-terminal 256 amino acid protease domain of HCMV strain AD169, recombinantly expressed in E. coli
diffusion coefficient D20,w (HCMV protease [1]; 0% glycerol): 8.34 cm^2 10^7 | sedimentation coefficient S20,w (HCMV protease [1]; 0% glycerol): 2.78 S | diffusion coefficient D20,w (HCMV protease [1]; 20% glycerol (v/v)): 6.57 cm^2 10^7 | sedimentation coefficient S20,w (HCMV protease [1]; 20% glycerol (v/v)): 3.59 S | change in protease activity upon dilution (HCMV protease [2]; 0° C.): no significant change is observable for a period of hours | time for active form of the enzyme to reach equilibrium after dilution (HCMV protease [2]; 10% and 20% glycerol samples): ≤ 1.5 h | activity in 10% glycerol compared with 20% glycerol (HCMV protease [2]; 10% vs 20% glycerol (v/v)): lower than that incubated in 20% glycerol | decrease in protease activity upon dilution (HCMV protease [2]; 37° C.): occurs within minutes | specific activity as enzyme concentration is lowered (HCMV protease [2]; after dilution, incubations of 1.5 hr and 3.5 hr): tends toward zero as its concentration is lowered | t1/2 of change in activity upon enzyme dilution (HCMV protease [2]; temperatures above 20° C.): ≤ 30 min

dimer: early (55 kDa) elution peak of HCMV protease, dimeric form
hydrolytic activity in eluted dimer peak (HCMV protease [3]): more than 50 -fold of detectable levels

monomer: late (33 kDa) elution peak of HCMV protease, monomeric form
activity in eluted monomer peak (HCMV protease [3]): no detectable activity | activity of monomeric form as gauged by kinetic assays (HCMV protease [4]): inactive

wild-type HCMV protease: recombinant wild-type HCMV protease
return of activity following dilution (wild-type HCMV protease; dilution from pH 5.5 to pH 7.5): returned to full activity | stability of wild-type enzyme (wild-type HCMV protease; pH 5.5): stable at pH 5.5
